target: SARS-CoV-1 spike (S) receptor binding domain (SARS-CoV-1); assay: SPR

VHH-72-Fc S56M (Fc fusion) and VHH-72-Fc S56M,L97W (Fc fusion) are within 1.5-fold of each other in koff: 0.00025 s⁻¹ for the first, 0.0002 s⁻¹ for the second.

Going from VHH-72-Fc L97W,T99V (Fc fusion) to VHH-72-Fc S56M,L97W,T99V (Fc fusion), the koff rises from 8e-05 s⁻¹ to 0.00013 s⁻¹ (1.6-fold).

Compared with VHH-72-Fc T99V (Fc fusion), VHH-72-Fc L97W (Fc fusion) is 1.5-fold higher in koff: 0.00012 s⁻¹ for the first, 0.00018 s⁻¹ for the second.

VHH-72-Fc S56M,T99V (Fc fusion) was tested, and the koff was 0.00016 s⁻¹.

Reference: PMC8967028
